Target: T1, Recombinant GST-PKM2 (human, UniProt P14618 1-531)
T1 construct: pyruvate kinase M2 (PKM2), human cDNA in pGEX-6P-1; source: E. coli BL21 (DE3), purified (glutathione resin, dialysed in PBS)
Experiment: pull-down; recombinant His-PGAM1 immobilised on Ni-beads, mixed with recombinant GST-PKM2 or GST-ENO1; eluate analysed by western blot
Settings: both partners purified

T1 sequence (P14618 whole entry): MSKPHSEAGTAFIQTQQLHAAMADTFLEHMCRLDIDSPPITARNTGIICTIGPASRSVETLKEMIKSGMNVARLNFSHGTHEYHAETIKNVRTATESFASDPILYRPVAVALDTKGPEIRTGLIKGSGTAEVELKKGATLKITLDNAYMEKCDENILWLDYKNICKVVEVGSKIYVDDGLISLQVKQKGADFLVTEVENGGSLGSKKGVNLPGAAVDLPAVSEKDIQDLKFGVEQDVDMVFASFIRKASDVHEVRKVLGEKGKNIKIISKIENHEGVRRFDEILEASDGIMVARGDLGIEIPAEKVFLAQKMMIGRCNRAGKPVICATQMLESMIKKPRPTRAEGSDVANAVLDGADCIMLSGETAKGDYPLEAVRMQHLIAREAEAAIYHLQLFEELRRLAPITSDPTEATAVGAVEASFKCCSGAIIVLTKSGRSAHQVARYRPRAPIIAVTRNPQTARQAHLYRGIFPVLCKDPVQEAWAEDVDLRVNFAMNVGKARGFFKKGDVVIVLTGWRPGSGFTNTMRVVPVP

- binding result: binds
B1: Recombinant His-PGAM1 (enzyme, human)
chain: MAAYKLVLIRHGESAWNLENRFSGWYDADLSPAGHEEAKRGGQALRDAGYEFDICFTSVQKRAIRTLWTVLDAIDQMWLPVVRTWRLNERHYGGLTGLNKAETAAKHGEAQVKIWRRSYDVPPPPMEPDHPFYSNISKDRRYADLTEDQLPSCESLKDTIARALPFWNEEIVPQIKEGKRVLIAAHGNSLRGIVKHLEGLSEEAIMELNLPTGIPIVYELDKNLKPIKPMQFLGDEETVRKAMEAVAAQGKAKK
notes: phosphoglycerate mutase 1 (PGAM1), human cDNA in pET-28a; also called His-tagged PGAM1; source: E. coli BL21 (DE3), purified (Ni resin, dialysed in PBS)
